Reference: patent publication US20260365734 (published 2026)

What was measured:
[1] = target: T1, human PD-L1 (cell surface) (human, UniProt Q9NZQ7); test: FACS, T24 cells
human PD-L1 ECD = human PD-L1 ECD (human, UniProt Q9NZQ7); test: BLI
[2] = target: T1, human PD-L1 (cell surface); test: FACS
[3] = target: T1, human PD-L1 (cell surface); test: FACS; remark: listed apart in the source
[4] = target: mouse PD-L1 (cell surface) (mouse, UniProt Q9EP73); test: FACS, Hepa1-6 cells
[5] = target: T1, human PD-L1 (cell surface); test: FACS; remark: listed apart in the source
[6] = target: T1, human PD-L1 (cell surface); test: FACS, T24 cells; remark: listed apart in the source

T1 sequence (Q9NZQ7 19-238): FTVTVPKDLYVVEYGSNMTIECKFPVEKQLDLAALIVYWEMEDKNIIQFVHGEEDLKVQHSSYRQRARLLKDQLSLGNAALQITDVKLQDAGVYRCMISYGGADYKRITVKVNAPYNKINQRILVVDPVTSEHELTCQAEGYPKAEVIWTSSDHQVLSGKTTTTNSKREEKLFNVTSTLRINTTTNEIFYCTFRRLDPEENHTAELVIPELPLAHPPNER
Chain of human PD-L1 ECD (Q9NZQ7 19-238): as above
Chain of mouse PD-L1 (cell surface) (Q9EP73 19-238): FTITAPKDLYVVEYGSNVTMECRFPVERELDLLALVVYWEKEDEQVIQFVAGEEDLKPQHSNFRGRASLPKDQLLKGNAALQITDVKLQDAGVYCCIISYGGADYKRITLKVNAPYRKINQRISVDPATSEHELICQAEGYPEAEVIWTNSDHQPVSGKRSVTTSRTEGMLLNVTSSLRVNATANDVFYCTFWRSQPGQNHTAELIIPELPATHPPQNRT

Binder	EC50 [1] [nM]	Kd (human PD-L1 ECD) [nM]	EC50 [2] [nM]	EC50 [3] [nM]	binding result [4]	EC50 [5] [nM]	binding result [6]
R2-5C12 (antibody, V domains shown) VH: QVQLVESGGGLVQAGGSLRLSCAASGFSASDVVMAWYRQAPGKQREFVANIAARGSTDYANSVKGRFTISRDNAKNTVYLQMNSLKSDDTAVYYCNALVWNGSSYNNWGQGTQVTVSS	0.078	5.01	0.22	0.24	–	–	–
5F8-hv8 (antibody, V domains shown) VH: EVQLVESGGGLVQPGGSLRLSCAASGFDFSDTHMSWVRQAPGKERELVAIITSGGSTDYVDSVKGRFTISRDNSKNTLYLQMNSLRAEDTAVYYCNARRTTIYWGQGTQVTVSS	–	–	–	–	no binding	0.69	–
R2-1F4 (antibody, V domains shown) VH: QVQLVESGGGLVQAGGSLRLSCAASGFSASDVVMAWYRQAPGKQREFVANIAASSTTRYADSVKGRFTISRDDAKNTVSLQMNSLKSEDTAVYYCNALVWNGSSYNNWGQGTQVTVSS	0.059	2.04	–	0.22	–	–	–
Avastin (antibody, V domains shown) VH: EVQLVESGGGLVQPGGSLRLSCAASGYTFTNYGMNWVRQAPGKGLEWVGWINTYTGEPTYAADFKRRFTFSLDTSKSTAYLQMNSLRAEDTAVYYCAKYPHYYGSSHWYFDVWGQGTLVTVSS VL: DIQMTQSPSSLSASVGDRVTITCSASQDISNYLNWYQQKPGKAPKVLIYFTSSLHSGVPSRFSGSGSGTDFTLTISSLQPEDFATYYCQQYSTVPWTFGQGTKVEIK	–	–	–	–	–	–	no binding
R3-5F8 (antibody, V domains shown) VH: EVQLVESGGGLVQPGGSLRLSCVASGFDFSDTHMGWYRQAPGKERELVAIITSGGSTDYVDSVKGRFTISRDNAKNTVYLQMNSLKFEDTAVYYCNARRTTIYWGQGTQVTVSS	0.503	0.054	–	0.53	–	–	–
R3-3H1 (antibody, V domains shown) VH: QLQLVESGGGVVQPGGSLRLSCAASGIDFSDTHMGWYRQAPGKQRELVAIITSGGSTDYVDSVKGRFTISRDNAKNTVYLQMNSLKFEDTAVYYCNARRSTIYWGQGTQVTVSS	–	1.2	–	0.815	–	–	–
